The results in this text go back to patent US9713649 (CLEVELAND CLINIC FOUNDATION, dated 2017).

Primed or numbered codes have the meaning given here. Where no end group is shown, it is not given here. [ ]: non-standard residue; d: D form. The star is where a group is joined. MCC = 4-(N-maleimidomethyl)cyclohexane-1-carbonyl, from SMCC, O=C1C=CC(=O)N1C[C@H]1CC[C@H](C(=O)*)CC1; NOTA(2S-Bn(4-NHCS)) = O=C(O)CN1CCN(CC(=O)O)C[C@H](Cc2ccc(NC(=S)*)cc2)N(CC(=O)O)CC1; Amc = N-aminomethyl cyclohexanoic acid; ZJ = urea ligand Cys-C(O)-Glu; Ahx = NCCCCCC(=O)O; E′E = Glu-urea-Glu

The labels stand for the following.
B1: E′E-Ahx-EEEYK(Bn-NOTA)-NH2 (Compound 5) (peptide)
peptide: {E′E}-[Ahx]EEEYK(NOTA(2S-Bn(4-NHCS)))-NH2
notes: Tested unlabelled; also called E′E-Ahx-Glu-Glu-Glu-Tyr-Lys(Bn-NOTA)-NH2
B2: ZJ-MCC-Ahx-YYYG (Compound 2) (peptide)
peptide: {ZJ-MCC}-[Ahx]YYYG
notes: Synthetic urea-ligand peptide conjugate, unlabelled
B3: E′EAmc-Ahx-dEdEdEYK(Bn-NOTA)-NH2 (Compound 4) (peptide)
peptide: {E′E-Amc}-[Ahx][dE][dE][dE]YK(NOTA(2S-Bn(4-NHCS)))-NH2
notes: Tested unlabelled; also called E′EAmc-Ahx-dGlu-dGlu-dGlu-Tyr-Lys(Bn-NOTA)-NH2

T1 sequence (Q04609 whole entry): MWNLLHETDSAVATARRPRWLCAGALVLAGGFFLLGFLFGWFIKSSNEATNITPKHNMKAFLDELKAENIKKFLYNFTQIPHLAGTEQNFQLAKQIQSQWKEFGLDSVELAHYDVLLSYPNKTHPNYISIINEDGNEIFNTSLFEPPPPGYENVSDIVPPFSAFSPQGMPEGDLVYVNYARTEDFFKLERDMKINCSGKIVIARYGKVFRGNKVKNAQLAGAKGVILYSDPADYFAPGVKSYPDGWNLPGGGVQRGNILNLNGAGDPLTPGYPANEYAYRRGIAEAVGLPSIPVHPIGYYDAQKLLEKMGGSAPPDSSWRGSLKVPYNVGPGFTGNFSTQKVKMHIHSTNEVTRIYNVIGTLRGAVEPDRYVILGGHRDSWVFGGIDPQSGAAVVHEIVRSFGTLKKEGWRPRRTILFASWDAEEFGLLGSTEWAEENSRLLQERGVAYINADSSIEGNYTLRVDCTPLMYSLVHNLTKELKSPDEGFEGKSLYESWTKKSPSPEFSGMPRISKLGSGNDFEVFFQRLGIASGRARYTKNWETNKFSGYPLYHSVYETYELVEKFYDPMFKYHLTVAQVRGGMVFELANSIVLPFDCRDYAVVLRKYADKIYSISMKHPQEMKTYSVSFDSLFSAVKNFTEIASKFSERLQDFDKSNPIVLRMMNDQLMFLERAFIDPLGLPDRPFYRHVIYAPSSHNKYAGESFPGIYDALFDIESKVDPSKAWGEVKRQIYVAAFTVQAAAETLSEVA

The experiment concerns the target T1, Prostate specific membrane antigen (PSMA) (UniProt Q04609 1-750, limits assumed).
T1 construct: whole, on cells
The experiment can be described thus: competitive binding on LNCaP or PC3-PIP cells; displacement of 12 nM N-[N-[(S)-1,3-dicarboxypropyl]carbamoyl]-S-[3H]-methyl-L-cysteine, scintillation counting. On the procedure:
Briefly, LNCaP or PC3-PIP cells (5×10^5) were incubated with different concentrations of ligands in the presence of 12 nM N—[N—[(S)-1,3-dicarboxypropyl]carbamoyl]-S-[^3H]-methyl-L-cysteine in a total volume of 300 µL for 1 hour at 37° C. The mixture was centrifuged at 3,000 g for 5 min at 4° C., then washed three times with 500 µL of cold PBS. Finally, 4 mL of EcoLume™ cocktail (MP Biomedicals) was added, and radioactivity was counted by scintillation counter. The concentration required to inhibit 50% of binding was determined (IC$50$) by GraphPad Prism 3.0.
Binding affinities of new compounds to PSMA.
Molecule {E′E-Amc}-[Ahx][dE][dE][dE]GYGGGC-NH2 [E′EAmc-Ahx-dEdEdEGYGGGC-NH2 (Compound 3)] gave an IC50 of 7 nM. Take B1: the IC50 was 4.3 nM. Then B2, with 2.5 nM; and B3, with 4.6 nM.
